Test results: patent US5480970A, “Metal chelators” (Resolution Pharmaceuticals, priority 1993, dated 1996)
Side-chain parts run from the residue outwards. [ ]: non-standard residue; d: D form. The star is where a group is joined. Picolinoyl = O=C(c1ccccn1)*; Nle = CCCC[C@H](N)C(=O)O; Chel = not defined here; Acm = CC(=O)NC*; For = O=C*

Assays:
[1] = system: inflamed muscle (left leg), E. coli; assay: In vivo uptake of Tc-99m chelates in inflamed vs non-inflamed muscle; set-up: species or system male Wistar rats; settings: Inflam agent E. coli; for Inflam muscle / Uninfl muscle: time (min): RP-063 30, RP-056 45, IgG 120, others not given; for Infl:Uninfl: ratio inflamed to uninflamed muscle, time (min): RP-063 30, RP-056 45, IgG 120
Description: (§1) Rat inflammation studies were performed as follows. 2 male Wistar rats (Charles River, 150-200 g) were injected intramuscularly with zymosan, a yeast cell wall preparation (5 mg) or virulent E. coli (ATCC 25922, 0.1 ml of 0.5×10^9 organisms/ml) suspension into their left hindlegs 24 hours before imaging. Focal inflammation in the leg was visually detectable after 1 day. 1 mg (ca. 0.7 μMol) of the chelator was dissolved in 50 μL of dimethylsulfoxide and added to an ethanol-water mixture (1:1, 200 μL). An aliquot of Tc-99m tartarate (ca. 400 MBq) was added and transchelation allowed to proceed for 20 min. at 100° C. The Tc-99m chelate was purified by elution through a Sep Pak cartridge. The purified tracer solution was further diluted with saline to prepare an injectable (200 μL) containing about 100 μCi (3.7 MBq) of activity.
(§2) The rats were anaesthetized with somnitol (40 to 50 mg/kg), and the Tc-99m chelate solution (200 μL) was injected intravenously via the tail vein. Serial whole-body scintigrams were acquired for the first 5 minutes. Subsequently, further images were obtained at 30, 60, and 120 minutes. The rats were then killed with anaesthesia and samples of organs, urine, blood, inflamed muscle (left leg) and non-inflamed muscle (right leg) were weighted and counted in either a well-type gamma counter or in a gamma dose calibrator. The dose calculations were made based on assumption that the rat weighed 200 g and that the blood volume constituted 8% of body weight. Results are averages for two rats and are corrected for the residual dose in the tail.

neutrophil receptors = assay: Neutrophil binding assay, competition with tritiated fMLP; settings: competition with 15 nM tritiated fMLP, 10^6 rat neutrophils, 1 hour room temperature
Description: Rat peripheral neutrophils were prepared for binding assay as follows: blood was obtained by cardiac puncture and anticoagulated with acid- citrate dextrose (ACD) (10%). Red blood cells were removed by sedimentation on hydroxyethyl cellulose (1.1%) for 30 min at room temperature and leukocyte-rich supernatant layered onto 65% percol. […] The remaining neutrophils were resuspended in Hanks Buffered Salt Solution (HBSS) to the desired concentration. Final neutrophil preparation consisted of cells pooled from up to 10 animals, >90% neutrophils and >95% viable by Trypan Blue exclusion.
Binding affinity of the test peptides was assessed by competing off a constant concentration of tritiated fMLP of known affinity for neutrophil receptors. 10^6 neutrophils were added to polypropylene plates containing 15 nM tritiated fMLP and varying concentrations of unlabelled test peptides in a final volume of 150 μL HBSS. […] Filters were then placed in 6 ml scintillation vials, 5 ml of scintillation fluid added (Ecolume) and vials counted using a liquid scintillation counter. […] Specific binding was the total binding less non-specific binding which was the amount of residual radioactivity bound in the presence of 10 μM unlabelled fMLP.

[2] = In vivo biodistribution of Tc-99m chelates in rat inflammation studies; set-up: species or system male Wistar rats; settings: for In vivo Distribution blood: Tc-99m chelate i.v. tail vein, average of two rats, time (min): RP-022 90, RP-043 88, RP-050 109, RP-063 30, RP-065 30, IgG 120, RP-049 not given; for In vivo Distribution GI tract / In vivo Distribution liver / In vivo Distribution kidney / In vivo Distribution urine: Tc-99m chelate i.v.; for In vivo Distribution GI tract / In vivo Distribution liver: time (min): RP-022 90, RP-043 88, RP-050 109, RP-063 30; for In vivo Distribution kidney: time (min): RP-022 90, RP-043 88, RP-050 109, RP-063 30, RP-049 not given; for In vivo Distribution urine: time (min): RP-022 90, RP-043 88, RP-050 109, RP-063 30, RP-065 30
Description: as §1, §2

(Pic-Gly-Cys(Acm)-Gly)-ε-NH-Lys(-Asp-Gly-OH)-Lys-Tyr-Nleu-Phe-Leu- Nleu-for (For-[Nle]LF[Nle]YKK([Gly-Cys(Acm)-Gly-Picolinoyl])DG-OH) [RP-056, ID No. 13]
Inflam muscle [1]: 0.143 % per gm
Uninfl muscle [1]: 0.041 % per gm
Infl:Uninfl [1]: 3.52
binding affinity for neutrophil receptors (neutrophil receptors): greater binding affinity for neutrophil receptors than native fMLP

(Pic-Gly-Cys(Acm)-Gly)-εNH-Lys(-Gly-OH)-Tyr-Nleu-Phe-Leu-Nleu-for (For-[Nle]LF[Nle]YK([Gly-Cys(Acm)-Gly-Picolinoyl])G-OH) [RP-050, ID NO: 12]
In vivo Distribution blood [2]: 3.436 % per organ
In vivo Distribution GI tract [2]: 25.777 % per organ
In vivo Distribution liver [2]: 20.866 % per organ
In vivo Distribution kidney [2]: 11.470 % per organ
In vivo Distribution urine [2]: 14.050 % per organ
Infl:Uninfl [1]: 3.17
binding affinity for neutrophil receptors (neutrophil receptors): greater binding affinity for neutrophil receptors than native fMLP

(Pic-Gly-Cys-Gly)-εNH-Lys(-Gly-OH)-Tyr-Nleu-Phe-Leu-Nleu-for (For-[Nle]LF[Nle]YK([Gly-Cys-Gly-Picolinoyl])G-OH; SMILES CCCC[C@H](NC=O)C(=O)N[C@@H](CC(C)C)C(=O)N[C@@H](Cc1ccccc1)C(=O)N[C@@H](CCCC)C(=O)N[C@@H](Cc1ccc(O)cc1)C(=O)N[C@@H](CCCCNC(=O)CNC(=O)[C@H](CS)NC(=O)CNC(=O)c1ccccn1)C(=O)NCC(=O)O) [RP-022, ID NO: 11]
In vivo Distribution blood [2]: 3.036 % per organ
In vivo Distribution GI tract [2]: 41.285 % per organ
In vivo Distribution liver [2]: 35.26 % per organ
In vivo Distribution kidney [2]: 18.82 % per organ
In vivo Distribution urine [2]: 8.400 % per organ

(Pic-Ser-Cys(Acm)-Gly)-Lys-Pro-Pro-Arg-OH (Picolinoyl-SC(Acm)GKPPR-OH; SMILES CC(=O)NCSC[C@H](NC(=O)[C@H](CO)NC(=O)c1ccccn1)C(=O)NCC(=O)N[C@@H](CCCCN)C(=O)N1CCC[C@H]1C(=O)N1CCC[C@H]1C(=O)N[C@@H](CCCNC(=N)N)C(=O)O) [RP-065, ID NO: 10]
In vivo Distribution blood [2]: 3.520 % per organ
In vivo Distribution urine [2]: 53.000 % per organ
Inflam muscle [1]: 0.125 % per gm
Uninfl muscle [1]: 0.059 % per gm
Infl:Uninfl [1]: 2.1

(Pic-Ser-Cys(Acm)-Gly)-Thr-Lys-Pro-Pro-Arg-OH (Picolinoyl-SC(Acm)GTKPPR-OH; SMILES CC(=O)NCSC[C@H](NC(=O)[C@H](CO)NC(=O)c1ccccn1)C(=O)NCC(=O)N[C@H](C(=O)N[C@@H](CCCCN)C(=O)N1CCC[C@H]1C(=O)N1CCC[C@H]1C(=O)N[C@@H](CCCNC(=N)N)C(=O)O)[C@@H](C)O) [RP-063, ID NO: 9]
In vivo Distribution blood [2]: 6.370 % per organ
In vivo Distribution GI tract [2]: 5.080 % per organ
In vivo Distribution liver [2]: 3.050 % per organ
In vivo Distribution kidney [2]: 4.170 % per organ
In vivo Distribution urine [2]: 44.710 % per organ
Inflam muscle [1]: 0.180 % per gm
Uninfl muscle [1]: 0.050 % per gm
Infl:Uninfl [1]: 3.62

Chel-Gly-Cys(Acm)-Gly-OH (reading uncertain; also: printed as Chel-Gly-Cys(Acm)-Gly-OH) [RP-043, ID NO: 6]
In vivo Distribution blood [2]: 1.016 % per organ
In vivo Distribution GI tract [2]: 52.619 % per organ
In vivo Distribution liver [2]: 0.953 % per organ
In vivo Distribution kidney [2]: 4.359 % per organ
In vivo Distribution urine [2]: 33.950 % per organ

Pic-Gly-Cys(Acm)-Gly-OH (Picolinoyl-Gly-Cys(Acm)-Gly-OH; SMILES CC(=O)NCSC[C@H](NC(=O)CNC(=O)c1ccccn1)C(=O)NCC(=O)O) [RP-049, ID NO: 8]
In vivo Distribution blood [2]: 0.187 % per organ
In vivo Distribution kidney [2]: 21.700 % per organ
Inflam muscle [1]: 0.077 % per gm
Uninfl muscle [1]: 0.019 % per gm
Infl:Uninfl [1]: 4.24
